Assay results: US7410775B2, “Method for making recombinant peptides or proteins using soluble endoproteases” (Bio-Ker S.R.L., priority 2000, dated 2008)
Blank lines part the entries; values can stand above or below the molecule they belong to. Residues, ends and D or L forms follow the SMILES beside them. *: point of attachment. pNA = O=[N+]([O-])c1ccc(N*)cc1; Cbz = O=C(OCc1ccccc1)*

Experiments:
[1] = biological target: T1, Kluyveromyces lactis Kex1 protease, soluble secreted variant ss-Kex1-C600 (truncated at amino acid 600; parent Kex1 SEQ ID NO: 3) (Kluyveromyces lactis, UniProt P09231); experiment: Kinetic constants of ss-Kex1-C600 (single initial substrate concentration, progress curve, Michaelis-Menten fit); type: biochemical
T1 sequence (P09231 103-600): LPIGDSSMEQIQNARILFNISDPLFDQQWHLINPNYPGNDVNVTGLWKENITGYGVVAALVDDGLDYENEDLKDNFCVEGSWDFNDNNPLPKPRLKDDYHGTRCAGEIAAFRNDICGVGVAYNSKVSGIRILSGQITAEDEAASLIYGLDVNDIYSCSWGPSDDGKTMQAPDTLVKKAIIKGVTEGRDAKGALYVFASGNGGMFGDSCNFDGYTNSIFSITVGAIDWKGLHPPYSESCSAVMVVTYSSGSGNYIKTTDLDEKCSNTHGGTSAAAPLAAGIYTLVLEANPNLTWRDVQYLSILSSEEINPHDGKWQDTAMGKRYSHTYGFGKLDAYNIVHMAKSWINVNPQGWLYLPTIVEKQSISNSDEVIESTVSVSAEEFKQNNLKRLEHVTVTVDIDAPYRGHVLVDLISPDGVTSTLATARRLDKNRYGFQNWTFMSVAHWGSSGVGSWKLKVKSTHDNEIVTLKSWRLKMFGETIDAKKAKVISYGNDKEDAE
Procedure: (§1) The enzyme activity was determined by a calorimetric test which exploits the capacity of the enzyme to hydrolyse the substrate Z-L-tyrosine-L-lysine-L-arginine-p-nitroanilide (Z-Y-K-R-pNA). The incubation mixture comprises 0.1 mM Z-Y-K-R-pNA in 0.2 M Hepes, pH 7.0 and 1 mM CaCl2, in a total volume of 1.5 ml at 37° C. The reaction is monitored at 405 nm, a wavelength at which the maximum decrease in the molar extinction coefficient (As), equal to 10.9 mM^−1 cm^−1, occurs. An enzyme unit is defined as being the quantity of enzyme that catalyses the transformation of 1 μmole of substrate per minute under the conditions described above. […]
(§2) The kinetic constants were determined by a simplified procedure which requires that measurements be carried out at a single initial concentration of substrate and until the substrate is exhausted. The method provides that, at various times, the average values of residual concentration and rate be determined and is applicable in those cases in which the enzyme catalyses an entirely irreversible reaction under the operating conditions, and is not subject to inhibition by product (Segel, I. H. (1975) Enzyme Kinetics, Wiley, New York). […]

[2] = biological target: T2, Saccharomyces cerevisiae Kex2 protease, soluble secreted form ss-Kex2-C613 (parent Kex2 SEQ ID NO: 4) (Saccharomyces cerevisiae, UniProt P13134); experiment: Kinetic constants of ss-Kex2-C613 (single initial substrate concentration, progress curve, Michaelis-Menten fit); type: biochemical
T2 construct: pro-region cut at Lys108-Arg109; from yeast
T2 sequence (P13134 1-613): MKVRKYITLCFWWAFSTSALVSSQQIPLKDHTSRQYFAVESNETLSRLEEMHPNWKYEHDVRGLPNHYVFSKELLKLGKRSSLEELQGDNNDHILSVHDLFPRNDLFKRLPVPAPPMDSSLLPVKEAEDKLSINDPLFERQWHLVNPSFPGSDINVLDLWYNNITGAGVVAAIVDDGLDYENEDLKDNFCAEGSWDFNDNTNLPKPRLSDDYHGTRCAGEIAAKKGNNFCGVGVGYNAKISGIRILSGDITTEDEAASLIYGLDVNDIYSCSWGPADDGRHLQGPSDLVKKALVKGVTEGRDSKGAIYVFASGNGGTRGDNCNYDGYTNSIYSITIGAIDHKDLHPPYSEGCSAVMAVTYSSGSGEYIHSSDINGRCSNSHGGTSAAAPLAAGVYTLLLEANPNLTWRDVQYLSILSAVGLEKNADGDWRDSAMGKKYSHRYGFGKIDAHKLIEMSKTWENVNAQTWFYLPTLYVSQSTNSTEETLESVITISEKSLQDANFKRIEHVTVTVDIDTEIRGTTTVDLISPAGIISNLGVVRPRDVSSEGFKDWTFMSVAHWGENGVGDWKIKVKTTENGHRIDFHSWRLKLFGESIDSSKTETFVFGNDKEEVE
Procedure: as §1, §2

[3] = substrate: N=C(N)NCCC[C@H](NC(=O)[C@H](CCCCN)NC(=O)[C@H](Cc1ccc(O)cc1)NC(=O)OCc1ccccc1)C(=O)Nc1ccc([N+](=O)[O-])cc1; experiment: Kinetic constants of ss-Kex1-C600 (single initial substrate concentration, progress curve, Michaelis-Menten fit); type: biochemical, Kluyveromyces lactis; conditions: other: ss-Kex1-C600; pH 7.0
Procedure: The enzyme activity was determined by a calorimetric test which exploits the capacity of the enzyme to hydrolyse the substrate Z-L-tyrosine-L-lysine-L-arginine-p-nitroanilide (Z-Y-K-R-pNA). The incubation mixture comprises 0.1 mM Z-Y-K-R-pNA in 0.2 M Hepes, pH 7.0 and 1 mM CaCl2, in a total volume of 1.5 ml at 37° C. The reaction is monitored at 405 nm, a wavelength at which the maximum decrease in the molar extinction coefficient (As), equal to 10.9 mM^−1 cm^−1, occurs. An enzyme unit is defined as being the quantity of enzyme that catalyses the transformation of 1 μmole of substrate per minute under the conditions described above. Unless expressly indicated otherwise, the data presented in Table 2 refer to the activity secreted in the growth medium by derivatives of the W303 strain which was grown in a flask at 30° C., with agitation (220 rpm), in 1040 medium-2% galactose (except for strains NP255 and NP265 in which the carbon source added to the growth medium was 2% glucose). Various samples were taken along the growth curve for each strain. […] The invention is therefore not limited by the type of promoter used, as long as the levels of secretion of the endoprotease of the invention are satisfactory.
The kinetic constants were determined by a simplified procedure which requires that measurements be carried out at a single initial concentration of substrate and until the substrate is exhausted. The method provides that, at various times, the average values of residual concentration and rate be determined and is applicable in those cases in which the enzyme catalyses an entirely irreversible reaction under the operating conditions, and is not subject to inhibition by product (Segel, I. H. (1975) Enzyme Kinetics, Wiley, New York). The results so obtained were processed using the Grafit programme, which permitted the interpolation of the Michaelis-Menten profile and the determination of the values of Km and Vmax, presented in Table 3. kcat and the kcat/Km ratio were then obtained from those values and from the enzyme concentration.

[4] = substrate: N=C(N)NCCC[C@H](NC(=O)[C@H](CCCCN)NC(=O)[C@H](Cc1ccc(O)cc1)NC(=O)OCc1ccccc1)C(=O)Nc1ccc([N+](=O)[O-])cc1; experiment: Kinetic constants of ss-Kex2-C613 (single initial substrate concentration, progress curve, Michaelis-Menten fit); type: biochemical, Saccharomyces cerevisiae; conditions: other: ss-Kex2-C613; pH 7.0
Procedure: as §1, §2

Vmax [1]: 1720 (ΔA min^−1) × 10^3
Vmax [2]: 1029 (ΔA min^−1) × 10^3
Molecule: N=C(N)NCCC[C@H](NC(=O)[C@H](CCCCN)NC(=O)[C@H](Cc1ccc(O)cc1)NC(=O)OCc1ccccc1)C(=O)Nc1ccc([N+](=O)[O-])cc1 [Z-Y-K-R-pNA, Z-L-tyrosine-L-lysine-L-arginine-p-nitroanilide] (Cbz-Tyr-Lys-Arg-pNA)

B1: Kluyveromyces lactis Kex1 protease, soluble secreted variant ss-Kex1-C600 (truncated at amino acid 600; parent Kex1 SEQ ID NO: 3) (Kluyveromyces lactis NRRL … (protein)
chain: T1 sequence (P09231 103-600)
Km [3]: 61.4 µM
kcat [3]: 3070 s⁻¹
kcat/Km [3]: 5e+07 M⁻¹ s⁻¹

B2: Saccharomyces cerevisiae Kex2 protease, soluble secreted form ss-Kex2-C613 (parent Kex2 SEQ ID NO: 4) (Saccharomyces cerevisiae S288C) (protein)
chain: T2 sequence (P13134 1-613)
notes: pro-region cut at Lys108-Arg109; from yeast
Km [4]: 56.8 µM
